{"source": "patent US20220073599A1", "about": "(Hoffmann-La Roche, published 2022)", "key": {"[1]": {"biological_target": "T1, human Ang2-RBD-muFc (human, UniProt O15123 275-496, limits assumed)", "T1 construct": "also called Human ANG2 (KinExA); not shown: murine Fc (muFc)", "T1 sequence": "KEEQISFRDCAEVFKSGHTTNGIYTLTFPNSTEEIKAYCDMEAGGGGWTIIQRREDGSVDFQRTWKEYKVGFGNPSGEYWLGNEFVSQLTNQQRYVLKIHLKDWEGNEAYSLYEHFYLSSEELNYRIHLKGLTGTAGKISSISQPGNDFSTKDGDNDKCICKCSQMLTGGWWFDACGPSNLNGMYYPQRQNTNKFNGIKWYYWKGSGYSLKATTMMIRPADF", "assay": "KinExA, human ANG2 (Ang2-RBD-muFc) by the table's title; the column's head prints VEGFA-121", "procedure": "All KinExA® experiments were performed at room temperature (RT) using PBS pH 7.4 with 0.01% BSA and 0.01% Tween® 20 (BioRad, #161-0781) as running buffer. […] A flow rate of 0.25 ml/min was used. A constant amount of Ang2-RBD-muFc (50 pM and in a second experiment 500 pM) was titrated with tested antibody by twofold serial dilution starting at 4 nM (concentration range 1.95 pM-4000 pM). Antigen-antibody complexes were incubated at RT for at least 8 h to allow equilibrium to be reached. Equilibrated mixtures were then drawn through a column of Anti-Ang2 antibody (MAB098) coupled beads in the KinExA® system at a volume of 750 μl for 50 pM constant Ang2 and at a volume of 188 μl for 500 pM constant Ang2 permitting unbound Ang2 to be captured by the beads without perturbing the equilibrium state of the solution. Bound Ang2 was detected using a second biotinylated anti-Ang2 antibody (BAM0981) with a concentration of 250 ng/ml and following by an injection of 250 ng/ml Streptavidin Alexa Fluor™ 647 conjugate in sample buffer. Each sample was measured in duplicates for all equilibrium experiments. The KD was obtained from non-linear regression analysis of the data using a one-site homogeneous binding model contained within the KinExA® software (Version 4.0.11) using the “standard analysis” method. […]"}, "[2]": {"biological_target": "T2, ANG2 (human, UniProt O15123 19-496, limits assumed)", "T2 sequence": "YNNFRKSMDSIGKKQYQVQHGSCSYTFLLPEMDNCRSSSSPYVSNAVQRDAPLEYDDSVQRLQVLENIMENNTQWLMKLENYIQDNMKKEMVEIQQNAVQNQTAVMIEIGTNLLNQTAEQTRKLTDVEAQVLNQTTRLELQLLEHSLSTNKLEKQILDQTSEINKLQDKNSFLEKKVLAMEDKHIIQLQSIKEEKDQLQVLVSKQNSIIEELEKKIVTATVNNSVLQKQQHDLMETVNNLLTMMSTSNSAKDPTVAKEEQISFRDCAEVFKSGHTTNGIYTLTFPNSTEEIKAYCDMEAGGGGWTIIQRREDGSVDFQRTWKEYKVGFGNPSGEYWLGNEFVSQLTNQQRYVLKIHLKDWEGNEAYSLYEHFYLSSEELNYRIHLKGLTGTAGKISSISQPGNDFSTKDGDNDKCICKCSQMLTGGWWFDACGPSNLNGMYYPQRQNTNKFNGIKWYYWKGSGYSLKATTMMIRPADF", "assay": "cell-based or functional assay"}}, "data": [{"binder": "Nesvacumab-analogue (antibody, human IgG1, kappa, L234A L235A, V domains shown, also called Nesvacumab (INN); Nesvacumab Mab) VH: AVQLVASGGGLVQPGGSLRLSCAASGFTFSSYDIHWVRQATGKGLEWVSAIGPAGDTYYPGSVKGRFTISRENAKNSLYLQMNSLRAGDTAVYYCARGLITFGGLIAPFDYWGQGTLVTVSS VL: IVLTQSPGTLSLSPGERATLSCRASQSVSSTYLAWYQQKPGQAPRLLIYGASSRATGIPDRFSGSGSGTDFTLTISRLEPEDFAVYYCQHYDNSQTFGQGTKVEIKR", "values": [{"measurement": "Kd", "setting": "[1]", "value": 0.01, "unit": "nM"}, {"measurement": "IC50, pTie2-Assay (Tie2 phosphorylation in Hek293 cells expressing Tie2, stimulated with Ang-2)", "setting": "[2]", "value": 6, "unit": "nM"}]}]}
